The values below come from publication PMC6039487.

Test [1] concerns the target MC4R(C319Ter), expressed from mCherry-2A-MC4R (human) (UniProt P32245).
For test [2], the target named is MC4R(L328Ter), expressed from mCherry-2A-MC4R (human) (UniProt P32245).
Test [3] concerns the target wild-type MC4R (melanocortin 4 receptor), expressed from mCherry-2A-MC4R (human) (UniProt P32245).

Take α-MSH (peptide): the figures for the EC50 of α-MSH induced cAMP production, pGloSensor luciferase cAMP assay in transfected HEK293 cells (dose-response, 10 min stimulation) in test [1], in test [2] and in test [3] were 2.7 nM, 3.3 nM and 2.5 nM, respectively.
